# Assay results from US20250011433A1 (GLIKNIK, published 2025).
# Where a chain is given by its changes, count along the chain named. Names may count otherwise.
# T1: FcγRIIb (UniProt P31994 46-217, limits assumed)
# T1 sequence (looked up): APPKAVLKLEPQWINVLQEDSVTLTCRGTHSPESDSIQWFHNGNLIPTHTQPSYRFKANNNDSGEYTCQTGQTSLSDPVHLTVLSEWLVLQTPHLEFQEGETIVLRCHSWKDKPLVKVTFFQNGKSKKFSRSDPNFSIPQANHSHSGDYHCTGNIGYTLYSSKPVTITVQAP
# B1: G1068 (Fc fusion)
# chain: EPKSCDKTHTCPPCPAPELLGGPSVFLFPPKPKDTLMISRTPEVTCVVVDVEFEDPEVKFNWYVDGVEVHNAKTKPREEQYNSAYRVVSVLTVLHQDWLNGKEYKCKVTNKALPAPIEKTISKAKGQPREPQVYTLPPSRDELTKNQVSLTCLVKGFYPSDIAVEWESNGQPENNYKTTPPVLDSDGSFFLYSKLTVDKSRWQQGNVFSCSVMHEALHNHYTQKSLSLSPGKERKCCVECPPCP
# notes: G045c background, S267E/H268F/S324T/T299A; leader 1-20 cleaved
# B2: G1069 (Fc fusion)
# chain: B1 chain with E52S, N82A, A84T
# notes: G045c background, H268F/S324T/N297A; leader 1-20 cleaved
# B3: G1074 (Fc fusion)
# chain: B1 chain with E52D, N82A, A84T
# notes: G045c background, S267D/H268F/S324T/N297A; leader 1-20 cleaved
# B4: G1075 (Fc fusion)
# chain: B1 chain with E52Q, N82A, A84T
# notes: G045c background, S267Q/H268F/S324T/N297A; leader 1-20 cleaved
# B5: G1082 (Fc fusion)
# chain: B1 chain with E18P, G21H, E52S, A84T
# notes: G045c background, E233P/G236H/H268F/S324T; leader 1-20 cleaved
# B6: G1088 (Fc fusion)
# chain: B1 chain with E18P, G21Q, E52S, A84T
# notes: G045c background, E233P/G236Q/H268F/S324T; leader 1-20 cleaved
# B7: G1089 (Fc fusion)
# chain: B1 chain with E18P, G21R, E52S, A84T
# notes: G045c background, E233P/G236R/H268F/S324T; leader 1-20 cleaved
# B8: G1092 (Fc fusion)
# chain: B1 chain with E52D
# notes: G045c background, S267D/H268F/S324T/T299A; leader 1-20 cleaved
# B9: G1094 (Fc fusion)
# chain: B1 chain with E52Q
# notes: G045c background, S267Q/H268F/S324T/T299A; leader 1-20 cleaved
# B10: G1095 (Fc fusion)
# chain: B1 chain with E52N
# notes: G045c background, S267N/H268F/S324T/T299A; leader 1-20 cleaved
# B11: G1101 (Fc fusion)
# chain: B1 chain with E18P, E52D, A84T
# notes: G045c background, E233P/S267D/H268F/S324T; leader 1-20 cleaved
# B12: G1102 (Fc fusion)
# chain: B1 chain with E18P, E52Q, A84T
# notes: G045c background, E233P/S267Q/H268F/S324T; leader 1-20 cleaved
# B13: G1103 (Fc fusion)
# chain: B1 chain with E18P, G21E, E52S, A84T
# notes: G045c background, E233P/G236E/H268F/S324T; leader 1-20 cleaved
# B14: G1104 (Fc fusion)
# chain: B1 chain with E18P, G21D, E52S, A84T
# notes: G045c background, E233P/G236D/H268F/S324T; leader 1-20 cleaved
# B15: G1105 (Fc fusion)
# chain: B1 chain with E18P, G21N, E52S, A84T
# notes: G045c background, E233P/G236N/H268F/S324T; leader 1-20 cleaved
# B16: G1106 (Fc fusion)
# chain: B1 chain with E18P, G21K, E52S, A84T
# notes: G045c background, E233P/G236K/H268F/S324T; leader 1-20 cleaved
# B17: G1107 (Fc fusion)
# chain: B1 chain with E52H
# notes: G045c background, S267H/H268F/S324T/T299A; leader 1-20 cleaved
# B18: G1108 (Fc fusion)
# chain: B1 chain with E18P, E52N, A84T
# notes: G045c background, E233P/S267N/H268F/S324T; leader 1-20 cleaved
# B19: G1110 (Fc fusion)
# chain: B1 chain with E18P, G21D, E52R, A84T
# notes: G045c background, E233P/G236D/S267R/H268F/S324T; leader 1-20 cleaved
# B20: G1111 (Fc fusion)
# chain: B1 chain with E18P, G21D, E52Q, A84T
# notes: G045c background, E233P/G236D/S267Q/H268F/S324T; leader 1-20 cleaved
# B21: G1114 (Fc fusion)
# chain: B1 chain with E18P, G21Q, E52D, A84T
# notes: G045c background, E233P/G236Q/S267D/H268F/S324T; leader 1-20 cleaved
# B22: G1115 (Fc fusion)
# chain: B1 chain with E18P, G21E, E52R, A84T
# notes: G045c background, E233P/G236E/S267R/H268F/S324T; leader 1-20 cleaved
# B23: G1117 (Fc fusion)
# chain: B1 chain with E18P, G21D, E52D, A84T
# notes: G045c background, E233P/G236D/S267D/H268F/S324T; leader 1-20 cleaved
# B24: G1118 (Fc fusion)
# chain: B1 chain with E18P, G21Q, E52Q, A84T
# notes: G045c background, E233P/G236Q/S267Q/H268F/S324T; leader 1-20 cleaved
# B25: G1120 (Fc fusion)
# chain: B1 chain with E18P, G21R, E52Q, A84T
# notes: G045c background, E233P/G236R/S267Q/H268F/S324T; leader 1-20 cleaved
# B26: G1121 (Fc fusion)
# chain: B1 chain with E18P, G21D, E52K, A84T
# notes: G045c background, E233P/G236D/S267K/H268F/S324T; leader 1-20 cleaved
# B27: G1122 (Fc fusion)
# chain: B1 chain with E18P, G21H, E52Q, A84T
# notes: G045c background, E233P/G236H/S267Q/H268F/S324T; leader 1-20 cleaved
# B28: G1124 (Fc fusion)
# chain: B1 chain with E18P, G21K, E52K, A84T
# notes: G045c background, E233P/G236K/S267K/H268F/S324T; leader 1-20 cleaved
# B29: G1125 (Fc fusion)
# chain: B1 chain with E18P, E52H, A84T
# notes: G045c background, E233P/S267H/H268F/S324T; leader 1-20 cleaved
# B30: G1128 (Fc fusion)
# chain: B1 chain with E18P, G21K, E52N, A84T
# notes: G045c background, E233P/G236K/S267N/H268F/S324T; leader 1-20 cleaved
# B31: G1129 (Fc fusion)
# chain: B1 chain with E18P, G21N, A84T
# notes: G045c background, E233P/G236N/S267E/H268F/S324T; leader 1-20 cleaved
# B32: G1130 (Fc fusion)
# chain: B1 chain with E18P, G21N, E52K, A84T
# notes: G045c background, E233P/G236N/S267K/H268F/S324T; leader 1-20 cleaved
# B33: G1131 (Fc fusion)
# chain: B1 chain with E18P, G21R, E52N, A84T
# notes: G045c background, E233P/G236R/S267N/H268F/S324T; leader 1-20 cleaved
# Biological target: T2, FcγRI (UniProt P12314 16-288)
# T2 construct: also called CD64
# T2 sequence (P12314 16-288 limits assumed): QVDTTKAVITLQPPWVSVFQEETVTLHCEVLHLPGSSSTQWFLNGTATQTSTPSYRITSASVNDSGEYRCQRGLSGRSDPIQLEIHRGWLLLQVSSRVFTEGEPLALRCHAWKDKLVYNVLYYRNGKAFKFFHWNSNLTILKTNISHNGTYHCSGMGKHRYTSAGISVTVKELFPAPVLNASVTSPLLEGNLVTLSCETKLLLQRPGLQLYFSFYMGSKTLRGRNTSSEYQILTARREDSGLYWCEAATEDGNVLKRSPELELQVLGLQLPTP
# Assay: BLI (Octet)
# Method: (§1) Binding of complement-preferential stradomers or parent stradomer G045c to FcγRI, FcγRIIb, FcγRIIIa, FcγRIIa, or FcRn was assessed. RU values of dissociation were measured by biolayer interferometry using a ForteBio Octet instrument. His-tagged receptor proteins were bound to the sensor tip in 1× kinetic analysis buffer from ForteBio after which the on rate of the receptor/protein was measured by transferring the sensor tip to a 1× kinetics buffer containing the purified stradomer of choice. Off rate was measured by transferring the sensor tip to a 1× kinetics buffer, and RU value was calculated from the measured maximum binding using the ForteBio software. Biolayer interferometry detects the binding between a ligand immobilized on the biosensor tip surface and an analyte in solution. When binding occurs it produces an increase in optical thickness at the biosensor tip, which results in a wavelength shift (detected as a response unit of “RU”). The maximum binding level (RU max) is the maximum possible amount of sample binding at equilibrium that saturates the amount of ligand on the sensor surface. The RU 300 is the residual sample binding after 300 seconds of dissociation and is useful to characterize the rate of dissociation of the test article from the test ligand.
# (§2) For each stradomer in Tables 5-9, the level of canonical FcγR binding, complement C1q binding, and CDC inhibition were determined according to the methods described in Example 1.
row,Binder,binding result
1,B1,binds
2,B2,binds
3,B3,binds
4,B4,binds
5,B5,binds
6,B6,binds
7,B7,binds
8,B8,binds
9,B9,binds
10,B10,binds
11,B11,binds
12,B12,binds
13,B13,binds
14,B14,binds
15,B15,binds
16,B16,binds
17,B17,binds

row,Binder,binding result
1,B18,binds
2,B19,binds
3,B20,binds
4,B21,binds
5,B22,binds
6,B23,binds
7,B24,binds
8,B25,binds
9,B26,binds
10,B27,binds
11,B28,binds
12,B29,binds
13,B30,binds
14,B31,binds
15,B32,binds
16,B33,binds

# Biological target: T1, FcγRIIb
# Assay: BLI (Octet)
# Method: as §1, §2
row,Binder,binding result
1,B1,binds
2,B3,binds
3,B6,binds
4,B7,binds
5,B8,binds
6,B9,binds
7,B10,binds
8,B11,binds
9,B12,binds
10,B13,binds
11,B14,binds
12,B15,binds
13,B17,binds
14,B18,binds
15,B20,binds
16,B21,binds
17,B23,binds
18,B24,binds
19,B27,binds
20,B28,binds
21,B29,binds
22,B30,binds
23,B31,binds
24,B32,binds

# Biological target: C1q (UniProt P02745 23-245; P02746 28-253; P02747 29-245)
# Sequence (P02745 23-245 limits assumed, chain 1 of 3): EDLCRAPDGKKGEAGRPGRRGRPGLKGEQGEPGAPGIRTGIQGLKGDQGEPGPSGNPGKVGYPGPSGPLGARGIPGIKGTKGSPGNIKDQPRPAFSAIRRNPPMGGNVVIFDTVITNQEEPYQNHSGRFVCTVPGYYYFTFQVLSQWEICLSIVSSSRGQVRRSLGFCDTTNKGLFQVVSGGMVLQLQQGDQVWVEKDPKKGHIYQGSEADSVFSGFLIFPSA
# Sequence (P02746 28-253 limits assumed, chain 2 of 3): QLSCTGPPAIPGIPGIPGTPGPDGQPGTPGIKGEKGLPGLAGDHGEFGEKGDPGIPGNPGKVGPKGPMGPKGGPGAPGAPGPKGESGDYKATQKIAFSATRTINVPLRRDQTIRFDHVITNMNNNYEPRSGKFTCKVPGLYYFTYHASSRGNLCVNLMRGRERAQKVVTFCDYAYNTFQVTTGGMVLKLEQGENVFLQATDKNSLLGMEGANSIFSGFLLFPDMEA
# Sequence (P02747 29-245 limits assumed, chain 3 of 3): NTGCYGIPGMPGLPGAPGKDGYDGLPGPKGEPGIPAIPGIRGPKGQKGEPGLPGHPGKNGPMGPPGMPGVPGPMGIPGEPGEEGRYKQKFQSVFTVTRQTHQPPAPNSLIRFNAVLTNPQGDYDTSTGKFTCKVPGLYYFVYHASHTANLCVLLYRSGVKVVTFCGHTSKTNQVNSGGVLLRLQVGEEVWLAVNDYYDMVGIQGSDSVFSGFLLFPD
# Assay: cell-based or functional assay
row,Binder,"CDC Inhibition (EC50, µg/mL) [µg/mL]"
1,B4,15
2,B5,5
3,B6,5
4,B9,12.5
5,B10,15
6,B11,5
7,B12,7.5
8,B13,5
9,B14,5
10,B15,5
11,B17,12.5
12,B18,5
13,B19,25
14,B20,5
15,B21,5
16,B22,50
17,B23,5
18,B27,5
19,B29,5
20,B31,5
21,B33,15
